From patent US20060252677A1 (published 2006)

Target: T1, His-tag fused human PJ01087 protein (Protein-Y) (human, UniProt O95886 1-979)
T1 construct: Used as 1% Triton-X supernatant of E. coli; also called His-PJ01087; not shown: N-terminal His-tag and linker encoded by vector pDEST17
T1 sequence: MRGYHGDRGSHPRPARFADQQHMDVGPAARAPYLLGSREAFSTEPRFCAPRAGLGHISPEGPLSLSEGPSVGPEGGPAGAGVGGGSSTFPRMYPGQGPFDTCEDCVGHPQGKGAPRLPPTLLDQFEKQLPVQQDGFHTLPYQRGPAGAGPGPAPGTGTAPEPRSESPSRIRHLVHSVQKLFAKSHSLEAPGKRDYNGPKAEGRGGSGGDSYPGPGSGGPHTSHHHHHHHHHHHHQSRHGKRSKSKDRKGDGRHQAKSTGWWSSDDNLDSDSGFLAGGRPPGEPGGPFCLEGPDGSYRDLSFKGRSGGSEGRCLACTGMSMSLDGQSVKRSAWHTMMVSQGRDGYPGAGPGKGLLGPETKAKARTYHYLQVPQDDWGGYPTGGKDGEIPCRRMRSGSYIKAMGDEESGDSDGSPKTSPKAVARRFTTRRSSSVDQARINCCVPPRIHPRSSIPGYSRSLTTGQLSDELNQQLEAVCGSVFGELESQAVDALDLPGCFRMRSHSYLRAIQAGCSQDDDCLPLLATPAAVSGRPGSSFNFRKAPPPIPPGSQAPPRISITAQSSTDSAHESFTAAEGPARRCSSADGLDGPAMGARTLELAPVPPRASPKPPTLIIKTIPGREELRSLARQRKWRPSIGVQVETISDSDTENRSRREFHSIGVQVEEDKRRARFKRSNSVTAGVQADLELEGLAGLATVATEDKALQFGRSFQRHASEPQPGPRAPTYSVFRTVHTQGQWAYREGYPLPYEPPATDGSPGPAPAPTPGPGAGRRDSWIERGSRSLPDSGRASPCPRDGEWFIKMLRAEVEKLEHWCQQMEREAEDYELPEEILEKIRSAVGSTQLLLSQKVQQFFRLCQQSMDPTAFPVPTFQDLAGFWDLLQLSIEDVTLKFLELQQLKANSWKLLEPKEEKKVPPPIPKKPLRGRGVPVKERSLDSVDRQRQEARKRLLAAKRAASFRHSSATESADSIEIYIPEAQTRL
Experiment: Immunoprecipitation with anti-GST antibody and Protein G-sepharose, Western blot with anti-His-tag antibody
Description: After adding 1 μl of anti-GST antibody (SIGMA) and agitating for 1 hour at 4° C., a further 30 μl of Protein G-sepharose was added thereto, and agitation proceeded for an additional 6 hours at 4° C. Thereafter, the supernatant was removed by centrifugation, and Protein G-sepharose was washed three times with 500 μl of 1% Triton-X/20 mM Tris (pH 7.4). After the washes, 30 μl of 2× sample buffer (2% SDS/50 mM Tris (pH 6.8)/30% glycerol/0.01% bromophenol blue) containing 2-mercaptoethanol was added to Protein G-sepharose and mixed. The samples were boiled for 2 minutes, subjected to electrophoresis on a 5%-20% polyacrylamide gel, and transferred onto a PVDF membrane. Then Western blotting was performed with anti-GST antibodies and anti-His-tag antibodies.
However, when Protein-Y (His-PJ01087) was reacted with Protein-X (GST-hj02537) or the Protein-X mutant (GST-hj (GK−)) to perform immunoprecipitation with an anti-GST antibody followed by detecting with an anti-His-tag antibody, no band showing Protein-Y was detected. Thus, no result showing that binding of Protein-Y to Protein-X exists could be obtained (lanes 5 or 6 in FIG. 23).

binding result: no binding
B1: GST fused novel PSD (Protein-X) (hj02537) (other, not shown: a dimerising Fc or GST)
chain: MPALSTGSGSDTGLYELLAALPAQLQPHVDSQEDLTFLWDMFGEKSLHSLVKIHEKLHYYEKQSPVPILHGAAALADDLAEELQNKPLNSEIRELLKLLSKPNVKALLSVHDTVAQKNYDPVLPPMPEDIDDEEDSVKIIRLVKNREPLGATIKKDEQTGAIIVARIMRGGAADRSGLIHVGDELREVNGIPVEDKRPEEIIQILAQSQGAITFKIIPGSKEETPSKEGKMFIKALFDYNPNEDKAIPCKEAGLSFKKGDILQIMSQDDATWWQAKHEADANPRAGLIPSKHFQERRLALRRPEILVQPLKVSNRKSSGFRRSFRLSRKDKKTNKSMYECKKSDQYDTADVPTYEEVTPYRRQTNEKYRLVVLVGPVGVGLNELKRKLLISDTQHYGVTVPHTTRARRSQESDGVEYIFISKHLFETDVQNNKFIEYGEYKNNYYGTSIDSVRSVLAKNKVCLLDVQPHTVKHLRTLEFKPYVIFIKPPSIERLRETRKNAKIISSRDDQGAAKPFTEEDFQEMIKSAQIMESQYGHLFDKIIINDDLTVAFNELKTTFDKLETETHWVPVSWLHS
notes: Crude 1% Triton-X E. coli supernatant used for immunoprecipitation; also called GST-hj02537
